Data: paper PMC7286605
“And” between values parts separate entries of the source, which are not always exact repeats. Equal entries are not always repeated.

Tests used:
[1] = target: water-soluble variant of the μ-opioid receptor (wsMOR) (UniProt P35372); assay: photonic crystal Fano resonance shift
[2] = target: water-soluble variant of the μ-opioid receptor (wsMOR) (UniProt P35372); assay: MoS2 field-effect transistor biosensor

## DAMGO ([D-Ala2, N-MePhe4, Gly-ol]-enkephalin) (peptide)
[1]
  EC50: 1 nM and 1.2 nM
  Kd: 2.5 nM
[2]
  EC50: 1.2 nM and 1.5 nM
  Kd: 3.6 nM
